Results: patent publication US20250043302A1, “MUTATED HYDROXYPHENYLPYRUVATE DIOXYGENASE POLYPEPTIDE, AND CODING GENE AND USE THEREOF” (BEIJING DABEINONG BIOTECHNOLOGY CO., LTD., priority 2021, published 2025)
Positions count from the first letter of the chain named. Names may count otherwise.

B1: HvHPPD-02: nucleotide sequence encoding wild-type Hordeum vulgare HPPD; vector DBN11762 (nucleic acid)
DNA: ATGCCGCCGACGCCCACCACCCCAGCAGCTACCGGAGCTGCGGCTGCAGTAACCCCTGAGCATGCTCGGCCCCACAGGATGGTGAGGTTTAATCCAAGATCAGATCGTTTTCATACACTCTCGTTCCACCATGTTGAGTTCTGGTGCGCCGACGCGGCTTCAGCGGCCGGGAGGTTCGCCTTCGCGCTGGGGGCCCCTCTTGCCGCGCGTAGTGATTTGTCTACTGGGAATTCAGCGCACGCGTCCCAGCTTCTCCGAAGCGGCAGTCTCGCCTTTCTCTTCACTGCACCATATGCAAATGGATGTGATGCAGCAACTGCTTCCCTGCCGAGCTTTTCTGCGGATGCCGCGAGGCGATTCAGTGCTGACCATGGGATCGCCGTCCGGTCAGTTGCTCTTAGAGTGGCTGATGCTGCTGAGGCATTCAGGGCTTCAAGGCGTCGTGGTGCACGCCCGGCGTTTGCCCCGGTTGATCTTGGGCGGGGGTTTGCTTTTGCAGAGGTGGAGCTGTACGGCGACGTGGTGCTCCGATTTGTTTCTCACCCGGACGGCACTGATGTGCCCTTCTTGCCAGGATTTGAAGGTGTGACCAACCCTGATGCCGTGGATTATGGACTCACAAGATTTGATCATGTGGTTGGCAATGTTCCTGAATTGGCACCTGCTGCCGCTTACATCGCAGGTTTTACTGGCTTCCATGAATTTGCTGAATTCACGGCGGAGGATGTTGGTACAACTGAGTCAGGGCTGAACAGTGTTGTTTTAGCCAACAACTCAGAAGGAGTTCTCCTTCCCTTGAATGAACCTGTTCATGGAACCAAGCGCCGCTCCCAAATTCAAACATTTCTTGAGCACCACGGCGGCCCTGGTGTTCAACATATTGCTGTCGCCTCTAGCGACGTCCTGCGTACATTACGCAAGATGAGGGCTCGGTCCGCAATGGGTGGTTTCGACTTCCTCCCTCCACCATTGCCAAAATATTATGAAGGCGTCAGAAGACTTGCAGGAGATGTCCTCTCTGAAGCTCAGATCAAGGAGTGCCAAGAACTTGGCGTCTTGGTTGATAGAGATGACCAAGGAGTACTTCTGCAGATATTTACAAAACCCGTTGGTGACAGGCCAACTCTTTTCCTGGAGATGATTCAGAGAATTGGCTGCATGGAGAAAGATGAAAGAGGCGAGGAGTACCAGAAGGGTGGTTGTGGAGGCTTTGGAAAAGGAAACTTCTCAGAGCTGTTCAAGTCCATAGAAGATTACGAGAAAAGTCTAGAAGCCAAGCAGTCTGCTGCAGTGCAAGGTTCCTGA
modifications: HvHPPD-02 Nucleotide Sequence
notes: vector DBN11762
B2: HvHPPDm-F372A-F383W-02: nucleotide sequence encoding Hordeum vulgare HPPD with F372A+F383W; vector DBN11765 (nucleic acid)
DNA: B1 DNA with T1096G, T1097C, T1098C, T1130G, C1131G
modifications: HvHPPDm-F372A-F383W-02 Nucleotide Sequence
notes: vector DBN11765

Legend:
Format in all cases: in vivo
[1] = system: Arabidopsis thaliana T1 plants; assay: Isoxaflutole tolerance of transgenic Arabidopsis thaliana T1 plants (spray, bleached leaf area grade, damage score); set-up: Scores (pesticide damage): scale not given here; details: spray, Arabidopsis thaliana T1 plants; for Classification and statistics of the grade of pesticide damage: Grade 0 (number of plants) / Classification and statistics of the grade of pesticide damage: Grade 1 (number of plants) / Classification and statistics of the grade of pesticide damage: Grade 2 (number of plants) / Classification and statistics of the grade of pesticide damage: Grade 3 (number of plants): 16 plants
Method in brief: (§1)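 Damage was assessed by bleaching grade (0 none; 1 <50%; 2 >50%; 3 100% of leaf area) one week after spraying. Sprays on 18-day-old T1 and wild-type plants used field-rate multiples: topramezone 25–200, isoxaflutole 35–280, mesotrione 52.5–420 g ai/ha.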

[2] = system: Arabidopsis thaliana T1 plants; assay: Topramezone tolerance of transgenic Arabidopsis thaliana T1 plants (spray, bleached leaf area grade, damage score); details: 7 DAT, Table 4; for Classification and statistics of the grade of pesticide damage: Grade 0 / Classification and statistics of the grade of pesticide damage: Grade 1 / Classification and statistics of the grade of pesticide damage: Grade 2 / Classification and statistics of the grade of pesticide damage: Grade 3: number of plants; for Scores: pesticide damage score 0-100
Method in brief: as §1

[3] = system: Arabidopsis thaliana T1 plants; assay: Mesotrione tolerance of transgenic Arabidopsis thaliana T1 plants (spray, bleached leaf area grade, damage score); set-up: Scores: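 damage score 0-100 computed as Σ(N×S)/(T×M)×100 over grades 0-3 with higher meaning more damage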; details: Arabidopsis thaliana T1 plants; for Grade 0 (classification and statistics of the grade of pesticide damage; number of plants) / Grade 1 (classification and statistics of the grade of pesticide damage; number of plants) / Grade 2 (classification and statistics of the grade of pesticide damage; number of plants) / Grade 3 (classification and statistics of the grade of pesticide damage; number of plants): 16 plants
Method in brief: as §1

[4] = isoxaflutole 35 g ai/ha (0.5x field concentration)
[5] = isoxaflutole 70 g ai/ha (1x field concentration)

| Molecule | Resistance evaluation [1, 4] | Scores (pesticide damage) [1, 4] | Classification and statistics of the grade of pesticide damage: Grade 0 (number of plants) [1, 4] | Classification and statistics of the grade of pesticide damage: Grade 1 (number of plants) [1, 4] | Classification and statistics of the grade of pesticide damage: Grade 2 (number of plants) [1, 4] | Classification and statistics of the grade of pesticide damage: Grade 3 (number of plants) [1, 4] | Resistance evaluation [1, 5] | Scores (pesticide damage) [1, 5] | Classification and statistics of the grade of pesticide damage: Grade 0 (number of plants) [1, 5] | Classification and statistics of the grade of pesticide damage: Grade 1 (number of plants) [1, 5] | Classification and statistics of the grade of pesticide damage: Grade 2 (number of plants) [1, 5] | Classification and statistics of the grade of pesticide damage: Grade 3 (number of plants) [1, 5] | Classification and statistics of the grade of pesticide damage: Grade 0 ([2]; topramezone 25 g ai/ha (1×)) | Classification and statistics of the grade of pesticide damage: Grade 1 ([2]; topramezone 25 g ai/ha (1×)) | Classification and statistics of the grade of pesticide damage: Grade 2 ([2]; topramezone 25 g ai/ha (1×)) | Classification and statistics of the grade of pesticide damage: Grade 3 ([2]; topramezone 25 g ai/ha (1×)) | Classification and statistics of the grade of pesticide damage: Grade 0 ([2]; topramezone 100 g ai/ha (4×)) | Classification and statistics of the grade of pesticide damage: Grade 1 ([2]; topramezone 100 g ai/ha (4×)) | Classification and statistics of the grade of pesticide damage: Grade 2 ([2]; topramezone 100 g ai/ha (4×)) | Classification and statistics of the grade of pesticide damage: Grade 3 ([2]; topramezone 100 g ai/ha (4×)) | also measured |
| --- | --- | --- | --- | --- | --- | --- | --- | --- | --- | --- | --- | --- | --- | --- | --- | --- | --- | --- | --- | --- | --- |
| B1 | Non-resistant | 100 | 0 | 0 | 0 | 16 | Non-resistant | 100 | 0 | 0 | 0 | 16 | 0 | 0 | 0 | 16 | 0 | 0 | 0 | 16 | Scores ([2]; topramezone 25 g ai/ha (1×)): 100; Scores ([2]; topramezone 100 g ai/ha (4×)): 100; Resistance evaluation ([2]; topramezone 25 g ai/ha (1×)): non-resistant (non-resistant plants (scores 68-100)); Resistance evaluation ([2]; topramezone 100 g ai/ha (4×)): non-resistant (non-resistant plants (scores 68-100)); Resistance evaluation ([3]; mesotrione 52.5 g ai/ha): Non-resistant; Scores ([3]; mesotrione 52.5 g ai/ha): 100; Grade 0 (classification and statistics of the grade of pesticide damage; number of plants) ([3]; mesotrione 52.5 g ai/ha): 0; Grade 1 (classification and statistics of the grade of pesticide damage; number of plants) ([3]; mesotrione 52.5 g ai/ha): 0; Grade 2 (classification and statistics of the grade of pesticide damage; number of plants) ([3]; mesotrione 52.5 g ai/ha): 0; Grade 3 (classification and statistics of the grade of pesticide damage; number of plants) ([3]; mesotrione 52.5 g ai/ha): 16; Resistance evaluation ([3]; mesotrione 105 g ai/ha): Non-resistant; Scores ([3]; mesotrione 105 g ai/ha): 100; Grade 0 (classification and statistics of the grade of pesticide damage; number of plants) ([3]; mesotrione 105 g ai/ha): 0; Grade 1 (classification and statistics of the grade of pesticide damage; number of plants) ([3]; mesotrione 105 g ai/ha): 0; Grade 2 (classification and statistics of the grade of pesticide damage; number of plants) ([3]; mesotrione 105 g ai/ha): 0; Grade 3 (classification and statistics of the grade of pesticide damage; number of plants) ([3]; mesotrione 105 g ai/ha): 16 |
| B2 | Moderately | 25 | 4 | 12 | 0 | 0 | Moderately | 33 | 1 | 14 | 1 | 0 | 16 | 0 | 0 | 0 | 10 | 6 | 0 | 0 | Scores ([2]; topramezone 25 g ai/ha (1×)): 0; Scores ([2]; topramezone 100 g ai/ha (4×)): 13; Resistance evaluation ([2]; topramezone 25 g ai/ha (1×)): highly; Resistance evaluation ([2]; topramezone 100 g ai/ha (4×)): highly; Resistance evaluation ([3]; mesotrione 52.5 g ai/ha): Highly resistant; Scores ([3]; mesotrione 52.5 g ai/ha): 8; Grade 0 (classification and statistics of the grade of pesticide damage; number of plants) ([3]; mesotrione 52.5 g ai/ha): 12; Grade 1 (classification and statistics of the grade of pesticide damage; number of plants) ([3]; mesotrione 52.5 g ai/ha): 4; Grade 2 (classification and statistics of the grade of pesticide damage; number of plants) ([3]; mesotrione 52.5 g ai/ha): 0; Grade 3 (classification and statistics of the grade of pesticide damage; number of plants) ([3]; mesotrione 52.5 g ai/ha): 0; Resistance evaluation ([3]; mesotrione 105 g ai/ha): Moderately; Scores ([3]; mesotrione 105 g ai/ha): 29; Grade 0 (classification and statistics of the grade of pesticide damage; number of plants) ([3]; mesotrione 105 g ai/ha): 2; Grade 1 (classification and statistics of the grade of pesticide damage; number of plants) ([3]; mesotrione 105 g ai/ha): 14; Grade 2 (classification and statistics of the grade of pesticide damage; number of plants) ([3]; mesotrione 105 g ai/ha): 0; Grade 3 (classification and statistics of the grade of pesticide damage; number of plants) ([3]; mesotrione 105 g ai/ha): 0 |
